From the supplement of paper PMC10126150
± gives the standard deviation of the averaged measurements.

Test system: ATP
Test: switch fluorescence ratio, 500 uM ATP over buffer (Cy3 cluster intensity, sum of 5 cycles each) (fold (ratio)); higher = stronger signal-on switching upon ATP binding; sequences stand for … in TCGTCGGCAGCGTCAGATGTGTATAAGAGACAGTTTTTTTTTTTTTTTTTTTTTTTTT…TC
Conditions: aptamer strand: ATP DNA aptamer (quencher-CACCTGGGGGAGTATTGCGGAGGAAGG + anchor), 100 nM annealed; ATP concentration: 500 uM
Outline: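 Values give the fluorescence ratio for each switch-domain sequence, averaged from per-cluster ratios of summed target-cycle to summed buffer-cycle Cy3 intensity. The Cy3-labelled switching-strand clusters sat on a modified Illumina MiSeq flow-cell, were annealed to 100 nM quencher-labelled ATP aptamer, and were imaged in selection buffer, then after 15 min with 500 uM ATP at 22 °C. Five cycles ran with NaOH stripping and re-annealing between them, and clusters outside 100-1000 RFU were excluded.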
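Also: ATP exposure 15 min at 22 °C before imaging.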

For TGTTGGGCAG, the switch fluorescence ratio was 0.9634 ± 0.0089.
TGTTGGGGG showed a switch fluorescence ratio of 0.994 ± 0.062.
In the case of TGTTGGTGC, the switch fluorescence ratio is reported as 1.04 ± 0.013.
Sequence TGTTGTAAAG has a switch fluorescence ratio of 0.985 ± 0.03.
TGTTGTAGAC showed a switch fluorescence ratio of 0.961 ± 0.0098.
Work on TGTTGTATTT yielded a switch fluorescence ratio of 1.01 ± 0.022.
TGTTGTCAGG was tested, and the switch fluorescence ratio was 0.99 ± 0.025.
TGTTGTCTTG showed a switch fluorescence ratio of 0.98616 ± 6.6e-05.
TGTTGTCTTT gave a switch fluorescence ratio of 1.03 ± 0.12.
TGTTGTTACA was tested, and the switch fluorescence ratio was 0.99 ± 0.029.
With TGTTGTTGAA the switch fluorescence ratio was 1.01 ± 0.042.
With TGTTGTTGGT the switch fluorescence ratio was 1.017 ± 0.00011.
Work on TGTTGTTGTT yielded a switch fluorescence ratio of 1.01 ± 0.086.
With TGTTGTTTAA the switch fluorescence ratio was 1.04 ± 0.086.
In the case of TGTTTAAGAG, the switch fluorescence ratio is reported as 1 ± 0.023.
Work on TGTTTAGGTT yielded a switch fluorescence ratio of 1.01 ± 0.071.
With TGTTTATCGG the switch fluorescence ratio was 0.998 ± 0.041.
TGTTTCTCGC showed a switch fluorescence ratio of 1.05 ± 0.037.
Sequence TGTTTCTTTT has a switch fluorescence ratio of 1.01 ± 0.024.
TGTTTGAAGG showed a switch fluorescence ratio of 0.995 ± 0.017.
Sequence TGTTTGACAT has a switch fluorescence ratio of 0.98 ± 0.02.
TGTTTGATGG gave a switch fluorescence ratio of 1.01 ± 0.038.
With TGTTTGGCTG the switch fluorescence ratio was 1.054 ± 0.0084.
In the case of TGTTTGGGCG, the switch fluorescence ratio is reported as 1.03 ± 0.077.
TGTTTGGGGG showed a switch fluorescence ratio of 1.01 ± 0.036.
Sequence TGTTTGGTGC has a switch fluorescence ratio of 1.54 ± 0.8.
Work on TGTTTGGTTA yielded a switch fluorescence ratio of 0.995 ± 0.017.
TGTTTGGTTT gave a switch fluorescence ratio of 1.01 ± 0.013.
Work on TGTTTGTAT yielded a switch fluorescence ratio of 0.9851 ± 0.0015.
TGTTTGTCTA gave a switch fluorescence ratio of 1.01 ± 0.011.
TGTTTGTTGG showed a switch fluorescence ratio of 0.9887 ± 0.009.
TGTTTGTTTC showed a switch fluorescence ratio of 0.973 ± 0.033.
Work on TGTTTTAGAA yielded a switch fluorescence ratio of 1.01 ± 0.012.
TGTTTTAGGC gave a switch fluorescence ratio of 0.977 ± 0.02.
For TGTTTTAGGG, the switch fluorescence ratio was 0.993 ± 0.035.
In the case of TGTTTTAGTT, the switch fluorescence ratio is reported as 1.01 ± 0.045.
With TGTTTTATGG the switch fluorescence ratio was 0.9871 ± 0.008.
TGTTTTATGT was tested, and the switch fluorescence ratio was 0.989 ± 0.032.
With TGTTTTCGGT the switch fluorescence ratio was 0.9899 ± 0.0097.
Work on TGTTTTGAGT yielded a switch fluorescence ratio of 1.01 ± 0.013.
Work on TGTTTTGATG yielded a switch fluorescence ratio of 1.04 ± 0.078.
For TGTTTTGGTG, the switch fluorescence ratio was 1.01 ± 0.027.
In the case of TGTTTTTAGT, the switch fluorescence ratio is reported as 0.9945 ± 0.0039.
TGTTTTTGTT was tested, and the switch fluorescence ratio was 1.01 ± 0.058.
TGTTTTTTAT showed a switch fluorescence ratio of 1.02 ± 0.047.
For TGTTTTTTTA, the switch fluorescence ratio was 0.979 ± 0.024.
Sequence TGTTTTTTTC has a switch fluorescence ratio of 1.06 ± 0.04.
With TGTTTTTTTT the switch fluorescence ratio was 0.999 ± 0.029.
In the case of TTAAAAAGTA, the switch fluorescence ratio is reported as 1.03 ± 0.02.
TTAAAACCTT was tested, and the switch fluorescence ratio was 1.56 ± 0.46.
For TTAAAACTCA, the switch fluorescence ratio was 1.04 ± 0.018.
Work on TTAAAAGTAT yielded a switch fluorescence ratio of 1.01 ± 0.043.
In the case of TTAAAATAGA, the switch fluorescence ratio is reported as 1.07 ± 0.1.
In the case of TTAAAATTAA, the switch fluorescence ratio is reported as 0.975 ± 0.021.
For TTAAACCCAC, the switch fluorescence ratio was 1.35 ± 0.023.
Sequence TTAAACGTAG has a switch fluorescence ratio of 1 ± 0.045.
In the case of TTAAACTCGG, the switch fluorescence ratio is reported as 0.998 ± 0.053.
With TTAAAGAGCT the switch fluorescence ratio was 1.014 ± 0.0028.
TTAAAGGGGG gave a switch fluorescence ratio of 1.02 ± 0.086.
TTAAAGGTAA showed a switch fluorescence ratio of 1.018 ± 0.0094.
Sequence TTAAAGGTAT has a switch fluorescence ratio of 1.11 ± 0.063.
Sequence TTAAAGTCCC has a switch fluorescence ratio of 0.993 ± 0.033.
With TTAAAGTCGG the switch fluorescence ratio was 1 ± 0.024.
TTAAAGTGAA was tested, and the switch fluorescence ratio was 0.988 ± 0.024.
TTAAATAAAA gave a switch fluorescence ratio of 0.999 ± 0.028.
With TTAAATCATT the switch fluorescence ratio was 1.014 ± 0.0099.
Work on TTAAATCGTG yielded a switch fluorescence ratio of 1.01 ± 0.054.
TTAAATCGTT gave a switch fluorescence ratio of 1.036 ± 0.0076.
With TTAAATGGGG the switch fluorescence ratio was 0.978 ± 0.011.
Sequence TTAAATTAAT has a switch fluorescence ratio of 0.976 ± 0.047.
Work on TTAAATTTGC yielded a switch fluorescence ratio of 1.03 ± 0.011.
TTAACACGGA gave a switch fluorescence ratio of 1.01 ± 0.019.
Sequence TTAACAGGGG has a switch fluorescence ratio of 1.33 ± 0.26.
Work on TTAACCCTTT yielded a switch fluorescence ratio of 1.02 ± 0.021.
With TTAACCGGGT the switch fluorescence ratio was 1.01 ± 0.057.
For TTAACGTAGA, the switch fluorescence ratio was 1.04 ± 0.015.
TTAACTGGTA gave a switch fluorescence ratio of 0.9904 ± 0.0016.
Sequence TTAACTGTTT has a switch fluorescence ratio of 0.992 ± 0.019.
TTAACTTGGG gave a switch fluorescence ratio of 0.976 ± 0.013.
Sequence TTAACTTTCA has a switch fluorescence ratio of 1.04 ± 0.029.
TTAAGAAATT was tested, and the switch fluorescence ratio was 1.01 ± 0.048.
TTAAGAATGC was tested, and the switch fluorescence ratio was 1.07 ± 0.12.
With TTAAGAGGTA the switch fluorescence ratio was 1.002 ± 0.0039.
TTAAGATCAT gave a switch fluorescence ratio of 0.969 ± 0.041.
With TTAAGGAATT the switch fluorescence ratio was 0.999 ± 0.036.
